In US20140087995A1 (published 2014):
Numbered stars: 1 amine (or outer) side, 2 acyl side, 3 side chain; on linkers, the order of the positions; unused ones are H or OH. Bridge positions count the residues as written; N and C are the ends. Side chains are listed from the residue outwards. Ends that are not written are not given here. * marks the point of attachment. C20 diacid = O=C(O)CCCCCCCCCCCCCCCCCCC(=O)*; γGlu = O=C(O)[C@H](CCC(=O)[*:2])N[*:1]; AEEA = NCCOCCOCC(=O)O

T1: human calcitonin receptor (human, UniProt P30988 25-474)
T1 sequence (looked up): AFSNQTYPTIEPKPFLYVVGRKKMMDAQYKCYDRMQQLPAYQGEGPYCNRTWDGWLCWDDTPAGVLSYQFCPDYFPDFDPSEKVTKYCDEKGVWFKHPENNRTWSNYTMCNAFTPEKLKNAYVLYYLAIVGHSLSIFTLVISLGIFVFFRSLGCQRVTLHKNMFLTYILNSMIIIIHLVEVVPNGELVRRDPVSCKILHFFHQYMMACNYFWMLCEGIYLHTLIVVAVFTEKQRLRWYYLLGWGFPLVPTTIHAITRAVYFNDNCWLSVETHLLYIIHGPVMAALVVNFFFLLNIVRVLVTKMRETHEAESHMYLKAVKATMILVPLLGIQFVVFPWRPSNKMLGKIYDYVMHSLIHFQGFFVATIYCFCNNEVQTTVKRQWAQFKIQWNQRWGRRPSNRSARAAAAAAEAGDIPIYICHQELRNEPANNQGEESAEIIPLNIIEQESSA


Biological target: T1, human calcitonin receptor
Assay: cell-based or functional assay

Ratio hCT/hAmylin funct. | Binder
15.4 | K([AEEA-γGlu-C20 diacid])CNTATCATQRLAHFLRHSSPNFGAIPSSTNVGHNTY-NH2 (disulfide 2-7; N-terminus assumed; SMILES CC[C@H](C)[C@H](NC(=O)[C@H](C)NC(=O)CNC(=O)[C@H](Cc1ccccc1)NC(=O)[C@H](CC(N)=O)NC(=O)[C@@H]1CCCN1C(=O)[C@H](CO)NC(=O)[C@H](CO)NC(=O)[C@H](Cc1c[nH]cn1)NC(=O)[C@H](CCCNC(=N)N)NC(=O)[C@H](CC(C)C)NC(=O)[C@H](Cc1ccccc1)NC(=O)[C@H](Cc1c[nH]cn1)NC(=O)[C@H](C)NC(=O)[C@H](CC(C)C)NC(=O)[C@H](CCCNC(=N)N)NC(=O)[C@H](CCC(N)=O)NC(=O)[C@@H](NC(=O)[C@H](C)NC(=O)[C@@H]1CSSC[C@H](NC(=O)[C@@H](N)CCCCNC(=O)COCCOCCNC(=O)CC[C@H](NC(=O)CCCCCCCCCCCCCCCCCCC(=O)O)C(=O)O)C(=O)N[C@@H](CC(N)=O)C(=O)N[C@@H]([C@@H](C)O)C(=O)N[C@@H](C)C(=O)N[C@@H]([C@@H](C)O)C(=O)N1)[C@@H](C)O)C(=O)N1CCC[C@H]1C(=O)N[C@@H](CO)C(=O)N[C@@H](CO)C(=O)N[C@H](C(=O)N[C@@H](CC(N)=O)C(=O)N[C@H](C(=O)NCC(=O)N[C@@H](Cc1c[nH]cn1)C(=O)N[C@@H](CC(N)=O)C(=O)N[C@H](C(=O)N[C@@H](Cc1ccc(O)cc1)C(N)=O)[C@@H](C)O)C(C)C)[C@@H](C)O, Synthetic acylated analogue of human amylin; also called compound 80)
13.3 | K([γGlu-C20 diacid])CNTATCATQRLAHFLRHSSPNFGAIPSSTNVGHNTY-NH2 (disulfide 2-7; N-terminus assumed; SMILES CC[C@H](C)[C@H](NC(=O)[C@H](C)NC(=O)CNC(=O)[C@H](Cc1ccccc1)NC(=O)[C@H](CC(N)=O)NC(=O)[C@@H]1CCCN1C(=O)[C@H](CO)NC(=O)[C@H](CO)NC(=O)[C@H](Cc1c[nH]cn1)NC(=O)[C@H](CCCNC(=N)N)NC(=O)[C@H](CC(C)C)NC(=O)[C@H](Cc1ccccc1)NC(=O)[C@H](Cc1c[nH]cn1)NC(=O)[C@H](C)NC(=O)[C@H](CC(C)C)NC(=O)[C@H](CCCNC(=N)N)NC(=O)[C@H](CCC(N)=O)NC(=O)[C@@H](NC(=O)[C@H](C)NC(=O)[C@@H]1CSSC[C@H](NC(=O)[C@@H](N)CCCCNC(=O)CC[C@H](NC(=O)CCCCCCCCCCCCCCCCCCC(=O)O)C(=O)O)C(=O)N[C@@H](CC(N)=O)C(=O)N[C@@H]([C@@H](C)O)C(=O)N[C@@H](C)C(=O)N[C@@H]([C@@H](C)O)C(=O)N1)[C@@H](C)O)C(=O)N1CCC[C@H]1C(=O)N[C@@H](CO)C(=O)N[C@@H](CO)C(=O)N[C@H](C(=O)N[C@@H](CC(N)=O)C(=O)N[C@H](C(=O)NCC(=O)N[C@@H](Cc1c[nH]cn1)C(=O)N[C@@H](CC(N)=O)C(=O)N[C@H](C(=O)N[C@@H](Cc1ccc(O)cc1)C(N)=O)[C@@H](C)O)C(C)C)[C@@H](C)O, Synthetic acylated analogue of human amylin; also called compound 81)
